{"source": "paper PMC11978871", "about": "“PACT prevents aberrant activation of PKR by endogenous dsRNA without sequestration” (Nature Communications, 2024)", "key": {"PKR K296R [1]": {"target": "T1, PKR K296R (UniProt P19525 1-551, K296R)", "T1 sequence (P19525 whole entry K296R)": "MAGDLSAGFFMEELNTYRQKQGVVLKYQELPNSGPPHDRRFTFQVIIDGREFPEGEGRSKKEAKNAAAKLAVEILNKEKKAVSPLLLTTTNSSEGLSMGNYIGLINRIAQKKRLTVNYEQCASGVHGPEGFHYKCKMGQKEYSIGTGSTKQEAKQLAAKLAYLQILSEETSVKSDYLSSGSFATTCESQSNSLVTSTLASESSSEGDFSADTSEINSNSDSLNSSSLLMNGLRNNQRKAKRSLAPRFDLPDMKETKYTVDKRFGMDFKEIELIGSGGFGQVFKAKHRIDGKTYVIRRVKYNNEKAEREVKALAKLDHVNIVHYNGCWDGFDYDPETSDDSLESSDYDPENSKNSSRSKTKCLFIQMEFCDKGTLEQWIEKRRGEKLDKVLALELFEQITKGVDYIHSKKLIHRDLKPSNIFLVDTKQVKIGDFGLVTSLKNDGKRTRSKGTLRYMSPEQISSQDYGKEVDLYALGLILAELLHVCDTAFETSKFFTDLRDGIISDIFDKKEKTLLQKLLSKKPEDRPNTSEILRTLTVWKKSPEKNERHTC", "assay": "SEC-MALS; 3 PKR per dsRNA; EMSA: 20 mM HEPES pH 7.5, 150 mM NaCl, 2 mM DTT, RT 15 min, 0.2 ng/ul 32P-112 bp dsRNA, 0-4000 nM protein, Bis-Tris native PAGE; smFRET buffer not in material", "conditions": "protein: recombinant; tags: pET29b; Cy5-labeled in smFRET; blunt"}, "PKR K296R [2]": {"target": "T1, PKR K296R", "assay": "SEC-MALS; 4 PKR per dsRNA; EMSA: 20 mM HEPES pH 7.5, 150 mM NaCl, 2 mM DTT, RT 15 min, 0.2 ng/ul 32P-112 bp dsRNA, 0-4000 nM protein, Bis-Tris native PAGE; smFRET buffer not in material", "conditions": "protein: recombinant; tags: pET29b; Cy5-labeled in smFRET; blunt"}, "[3]": {"target": "the molecule itself", "assay": "NMR structure; PACT D3 in 20 mM HEPES pH 7.5, 50 mM KCl, 2 mM DTT, 30 °C; inter-chain NOEs from a mixed-isotope sample (0.4 mM each protomer)"}}}
{"binder": "42 bp dsRNA (dsRNA) RNA 1: GGGAGAAUGUCGAAUGGGUAUUCCACAGACGAGAAUUCUCCC RNA 2: GGGAGAAUUCUCGUCUGUGGAAUACCCAUUCGACAUUCUCCC", "values": [{"measurement": "binding result", "setting": "PKR K296R [1]", "result": "binds"}]}
{"binder": "62 bp dsRNA (dsRNA) RNA 1: GGGAGAAUGUCGAAUGGGUAUUCCACAGACGAGAAUUUCCGCUAUCUCAUCUCGUGUCUCCC RNA 2: GGGAGACACGAGAUGAGAUAGCGGAAAUUCUCGUCUGUGGAAUACCCAUUCGACAUUCUCCC", "values": [{"measurement": "binding result", "setting": "PKR K296R [2]", "result": "binds"}]}
{"binder": "PACT DRBD3 (residues 235-313) (domain or fragment, UniProt O75569 235-313, looked up, isotope-labelled (15N, 13C, ~85% 2H; for the mixed sample 15N,2H-labelled and 13C-labelled protomers), PACT DRBD3, residues 235-313, in pET47b between BamHI and SalI; Homodimer in the NMR structure; also called PACT D3; source: E. coli BL21(DE3) in M9 minimal media, purified (Ni-NTA, SEC)) SIPNTDYIQLLSEIAKEQGFNITYLDIDELSANGQYQCLAELSTSPITVCHGSGISCGNAQSDAAHNALQYLKIIAERK", "values": [{"measurement": "stoichiometry N", "setting": "[3]", "result": 2}]}
